± gives the standard error. Fewer inactive variants are shown than the library holds.
B1: glmS ribozyme (parent)
chain: AUAAAAGCGCCAGAACUACAGAAAUGUAGUUGACGAGGAGGAGGUUUAUCGAAUUUUCGGCGGAUGCCUCCAAA

What was measured:
Conditions in all cases: with glucosamine-6-phosphate
glucosamine-6-phosphate [1] = variants of: B1; assay: self-cleavage kobs at 40 uM GlcN6P; higher = faster cleavage; RNA array
Outline: (§1)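 Sequenced MiSeq chips were the platform: E. coli RNA polymerase transcribed barcoded ribozyme variants on them in situ, and a hybridised Cy3 probe tracked these at 37 °C. After glucosamine-6-phosphate (40 μM to 10 mM) in HEPES/KCl/Mg(OAc)2 buffer was flowed in, tiles were imaged over ~14 h. Signals normalised to baseline and to non-cleaving reference variants were reduced to per-tile medians and fit to one- or two-exponential decays to obtain kobs. kcat and KM were derived through weighted Michaelis–Menten fits across concentrations.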

glucosamine-6-phosphate [2] = variants of: B1; assay: self-cleavage kobs at 160 uM GlcN6P; higher = faster cleavage; RNA array
Outline: as §1

glucosamine-6-phosphate [3] = variants of: B1; assay: self-cleavage kobs at 640 uM GlcN6P; higher = faster cleavage; RNA array
Outline: as §1

glucosamine-6-phosphate [4] = variants of: B1; assay: self-cleavage kobs at 10000 uM GlcN6P; higher = faster cleavage; RNA array
Outline: as §1

glucosamine-6-phosphate [5] = variants of: B1; assay: self-cleavage kobs at 2500 uM GlcN6P; higher = faster cleavage; RNA array
Outline: as §1

Row | Variant | self-cleavage kobs at 40 uM GlcN6P (glucosamine-6-phosphate [1]) [s⁻¹] | self-cleavage kobs at 160 uM GlcN6P (glucosamine-6-phosphate [2]) [s⁻¹] | self-cleavage kobs at 640 uM GlcN6P (glucosamine-6-phosphate [3]) [s⁻¹] | self-cleavage kobs at 10000 uM GlcN6P (glucosamine-6-phosphate [4]) [s⁻¹] | self-cleavage kobs at 2500 uM GlcN6P (glucosamine-6-phosphate [5]) [s⁻¹]
1 | C34G U54G | < 1e-05 | < 1e-05 | < 1e-05 | < 1e-05 | 
2 | C8U A39U U45G C70G | < 1e-05 |  |  | < 1e-05 | 
3 | G41C G43U | < 1e-05 | < 1e-05 | < 1e-05 | < 1e-05 | < 1e-05
4 | G26U C50G | 4.71e-05 ± 1.9e-05 |  |  | 3.96e-05 ± 1.3e-05 | 
5 | A6C G35U | < 1e-05 | < 1e-05 |  | < 1e-05 | < 1e-05
6 | C8U G51C | < 1e-05 | < 1e-05 |  | < 1e-05 | < 1e-05
7 | A6U G43A | < 1e-05 | < 1e-05 |  | < 1e-05 | 
8 | G35C G59U C61U | < 1e-05 | < 1e-05 | < 1e-05 | < 1e-05 | < 1e-05
9 | G13A G63U | < 1e-05 | < 1e-05 | < 1e-05 | < 1e-05 | < 1e-05
10 | G51C A52U | < 1e-05 |  | < 1e-05 | < 1e-05 | 
11 | A33C G51A | < 1e-05 |  |  | < 1e-05 | < 1e-05
12 | G29U A42U | < 1e-05 |  | < 1e-05 | 2.15e-05 ± 1.1e-05 | 
13 | A15U C50G | 3.42e-05 ± 8.1e-06 | 8.86e-05 ± 1.4e-05 | 0.000494 ± 0.00023 |  | 7.94e-05 ± 1.4e-05
14 | C10G G37A | < 1e-05 | < 1e-05 | < 1e-05 | < 1e-05 | 
15 | U45A G51A | < 1e-05 | < 1e-05 |  |  | 
16 | G41U U45A | 8.05e-05 ± 2.1e-05 |  |  | 0.000309 ± 5.5e-05 | 
17 | G51C C61U G62C | < 1e-05 |  |  | < 1e-05 | 
18 | A39C U55G | 0.000197 ± 7e-05 | 0.000315 ± 8.7e-05 | 0.00104 ± 0.00022 |  | 
19 | G40C A48C | < 1e-05 | < 1e-05 | < 1e-05 |  | 
20 | G40C A64C | < 1e-05 | < 1e-05 |  |  | 
21 | A6G A36G | < 1e-05 |  | < 1e-05 | < 1e-05 | < 1e-05
22 | A12U G44U U57A G59A | < 1e-05 |  |  | < 1e-05 | 

Row | Variant | self-cleavage kobs at 40 uM GlcN6P (glucosamine-6-phosphate [1]) [s⁻¹] | self-cleavage kobs at 160 uM GlcN6P (glucosamine-6-phosphate [2]) [s⁻¹] | self-cleavage kobs at 640 uM GlcN6P (glucosamine-6-phosphate [3]) [s⁻¹] | self-cleavage kobs at 10000 uM GlcN6P (glucosamine-6-phosphate [4]) [s⁻¹] | self-cleavage kobs at 2500 uM GlcN6P (glucosamine-6-phosphate [5]) [s⁻¹]
23 | G7U U55G | < 1e-05 | < 1e-05 |  | < 1e-05 | 
24 | A12U A15G A39G | 0.00105 ± 0.00021 |  |  | 0.0688 ± 0.023 | 
25 | A6C C34A C58A | < 1e-05 |  |  | < 1e-05 | 
26 | U57A C61U | < 1e-05 |  | < 1e-05 | < 1e-05 | < 1e-05
27 | C8G C50G A53G A64G | 0.000149 ± 6.6e-05 |  |  |  | 
28 | C8U U45G | < 1e-05 | < 1e-05 | < 1e-05 |  | < 1e-05
29 | C10G G32A | < 1e-05 |  |  | < 1e-05 | 
30 | G32U A52C | < 1e-05 |  | < 1e-05 | < 1e-05 | 
31 | C11A U69G | 5.85e-05 ± 9.2e-06 | 0.000398 ± 0.00018 | 0.000166 ± 4.5e-05 | 5.17e-05 ± 1.1e-05 | 
32 | C10U U31G G40U | < 1e-05 |  |  |  | 
33 | G35A U47A U57C G66A | < 1e-05 |  |  |  | 
34 | A52U G60A | < 1e-05 | < 1e-05 | < 1e-05 | < 1e-05 | 
35 | C8U G40U C70A | < 1e-05 |  |  | < 1e-05 | 
36 | G37U U45G U46C G63A C68A | < 1e-05 |  |  | < 1e-05 | 
37 | G41C U45G | < 1e-05 |  |  | 9.46e-05 ± 1.7e-05 | 
38 | G44C C67A | 0.000178 ± 2.3e-05 | 0.00032 ± 9e-05 | 0.00196 ± 0.00037 | 0.00668 ± 0.0019 | 0.00486 ± 0.0014
39 | A14U A36G C50U C61A | < 1e-05 |  |  |  | 
40 | U31G C34U | < 1e-05 | < 1e-05 | < 1e-05 | < 1e-05 | 
41 | A36C C58U | < 1e-05 |  | < 1e-05 | < 1e-05 | 
42 | G37C G59C A64G C68A | < 1e-05 | < 1e-05 |  |  | 
43 | G35U U65G | < 1e-05 | < 1e-05 | < 1e-05 | < 1e-05 | < 1e-05
44 | G29U U31A A42U | < 1e-05 |  |  |  | 

Row | Variant | self-cleavage kobs at 40 uM GlcN6P (glucosamine-6-phosphate [1]) [s⁻¹] | self-cleavage kobs at 160 uM GlcN6P (glucosamine-6-phosphate [2]) [s⁻¹] | self-cleavage kobs at 640 uM GlcN6P (glucosamine-6-phosphate [3]) [s⁻¹] | self-cleavage kobs at 10000 uM GlcN6P (glucosamine-6-phosphate [4]) [s⁻¹] | self-cleavage kobs at 2500 uM GlcN6P (glucosamine-6-phosphate [5]) [s⁻¹]
45 | G29C U30C G38C G44A A48C U55G | < 1e-05 |  |  | < 1e-05 | < 1e-05
46 | A6G G38U A39G G51A C68G C70U | 7.83e-05 ± 3.2e-05 |  |  |  | 
47 | U31C G40A G59U | < 1e-05 |  | < 1e-05 | < 1e-05 | < 1e-05
48 | A52U A53G C61U | < 1e-05 |  |  |  | 
49 | G43A C70G | < 1e-05 | < 1e-05 | < 1e-05 | < 1e-05 | < 1e-05
50 | C8A C68A | < 1e-05 | < 1e-05 | < 1e-05 |  | < 1e-05
51 | G9A C61A | < 1e-05 | < 1e-05 | < 1e-05 | < 1e-05 | < 1e-05
52 | G32U G43U G44U G60A | < 1e-05 |  | < 1e-05 |  | < 1e-05
53 | U49C G66C | < 1e-05 | < 1e-05 | < 1e-05 | < 1e-05 | 
54 | A15G C71A | 0.000251 ± 5.9e-05 | 0.00102 ± 0.00025 | 0.00108 ± 0.00025 | 0.005 ± 0.0016 | 0.006 ± 0.0015
55 | G32U G43C | < 1e-05 | < 1e-05 | < 1e-05 |  | < 1e-05
56 | G7U U57A | < 1e-05 | < 1e-05 | < 1e-05 | < 1e-05 | 
57 | C10G A52U G59C | < 1e-05 | < 1e-05 | < 1e-05 |  | < 1e-05
58 | U46A G59U | < 1e-05 | < 1e-05 | < 1e-05 | < 1e-05 | 
59 | C11U A15C A48U G60A | < 1e-05 |  |  | < 1e-05 | 
60 | C11U A15G C50G | 5.89e-05 ± 2.4e-05 |  |  |  | 
61 | G37U G43C | < 1e-05 | < 1e-05 |  | < 1e-05 | < 1e-05
62 | G38C U57C | < 1e-05 | < 1e-05 |  | < 1e-05 | 
63 | G35A C67A | < 1e-05 | < 1e-05 | < 1e-05 |  | < 1e-05
64 | C8U U55C | < 1e-05 |  | < 1e-05 | < 1e-05 | < 1e-05
65 | G44U U57A U69A | < 1e-05 | < 1e-05 | < 1e-05 | < 1e-05 | 
66 | C11G A15U C34G A39U A48G | < 1e-05 |  | < 1e-05 |  | < 1e-05

Row | Variant | self-cleavage kobs at 40 uM GlcN6P (glucosamine-6-phosphate [1]) [s⁻¹] | self-cleavage kobs at 160 uM GlcN6P (glucosamine-6-phosphate [2]) [s⁻¹] | self-cleavage kobs at 640 uM GlcN6P (glucosamine-6-phosphate [3]) [s⁻¹] | self-cleavage kobs at 10000 uM GlcN6P (glucosamine-6-phosphate [4]) [s⁻¹] | self-cleavage kobs at 2500 uM GlcN6P (glucosamine-6-phosphate [5]) [s⁻¹]
67 | A6U G44A C70U | < 1e-05 |  |  |  | 
68 | G7C U56A G60U G62A | < 1e-05 |  |  |  | 
69 | C8U G38U G59U C67U | < 1e-05 |  |  |  | 
70 | A12U G29U G35C U49A C70A C71G | < 1e-05 | < 1e-05 |  |  | 
71 | A6G C10G U31G U55A | < 1e-05 |  |  |  | 
72 | A48C C71A | < 1e-05 | < 1e-05 |  | 4.23e-05 ± 1e-05 | 3.84e-05 ± 1.4e-05
73 | U31A A42G G51A C70G | < 1e-05 |  |  | < 1e-05 | 
74 | A52C G60U U69C | < 1e-05 |  |  |  | 
75 | A42C G51A | < 1e-05 |  |  | < 1e-05 | < 1e-05
76 | G13A U30C A42U | < 1e-05 |  |  | < 1e-05 | 
77 | G37U G43C G66U | < 1e-05 |  |  | < 1e-05 | 
78 | G35U C50G | 3.53e-05 ± 1.5e-05 | 9.05e-05 ± 2.7e-05 |  |  | 0.000141 ± 3.9e-05
79 | C8A A48C | < 1e-05 | < 1e-05 | < 1e-05 | < 1e-05 | < 1e-05
80 | U57G G60C | < 1e-05 | < 1e-05 | < 1e-05 |  | < 1e-05
81 | A36C G37C G41C C50A A52C C71U | < 1e-05 |  |  |  | 
82 | A36G A52G | < 1e-05 | < 1e-05 | < 1e-05 | < 1e-05 | 
83 | C8U A14G A42C | < 1e-05 | < 1e-05 |  |  | < 1e-05
84 | A39G U45C C67U | 0.000136 ± 5.9e-05 |  |  | 0.00434 ± 0.0011 | 
85 | G9A G41U | < 1e-05 | < 1e-05 | < 1e-05 |  | < 1e-05
86 | G9A A52U | < 1e-05 | < 1e-05 | < 1e-05 | < 1e-05 | < 1e-05
87 | C10G U47A | < 1e-05 | < 1e-05 | < 1e-05 |  | 
88 | A64G U65G C71A | 5.45e-05 ± 2.2e-05 |  |  | 0.00131 ± 0.00024 | 
